We go through 50 sequences from the supplement of paper PMC9112550, “Optimization of the antimicrobial peptide Bac7 by deep mutational scanning” (BMC Biology, 2022).

In this data set the test system is Escherichia coli TOP10. Briefly: shrunken log2 fold change of peptide-encoding DNA abundance (4.5 h post-induction vs induction); higher = less antimicrobial activity (less host growth inhibition). The note with it: time post-induction: 4.5 h; library: site-saturation at positions 5, 18, 19, 20.
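Also: peptides expressed intracellularly from a pBAD plasmid library in pooled LB shake-flask culture, induced with 0.3% L-arabinose, DNA abundance read by NGS, three biological replicates, DESeq2 with apeglm shrinkage.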

In the case of RRIRIRPPRLPRPRPRPIIKPRP, the “shrunken log2 fold change” value is -0.666.
For RRIRCRPPRLPRPRPRPYSPPRP, the “shrunken log2 fold change” value is -1.13.
In the case of RRIRSRPPRLPRPRPRPFGVPRP it was -0.448.
Consider RRIRVRPPRLPRPRPRPFAAPRP, for which the “shrunken log2 fold change” value worked out at 0.15.
With RRIRTRPPRLPRPRPRPNHMPRP the figure was -0.792; with RRIRMRPPRLPRPRPRPRGSPRP, 0.631.
With RRIRHRPPRLPRPRPRPASNPRP the figure was -0.456.
In the case of RRIRMRPPRLPRPRPRPNELPRP it was 0.0804; in that of RRIRNRPPRLPRPRPRPKHHPRP, -0.487.
As to RRIRSRPPRLPRPRPRPCPFPRP, the “shrunken log2 fold change” value is -0.138.
In the case of RRIRHRPPRLPRPRPRPKTHPRP it was -0.314.
For the sequence RRIRVRPPRLPRPRPRPVQPPRP, the “shrunken log2 fold change” value turned out to be 0.114.
With RRIRMRPPRLPRPRPRPCGEPRP the figure was 0.967; with RRIRGRPPRLPRPRPRPCAMPRP, -0.102.
With RRIRVRPPRLPRPRPRPNTIPRP the figure was -0.571; with RRIRKRPPRLPRPRPRPRGEPRP, 0.764.
In the case of RRIRSRPPRLPRPRPRPVGRPRP it was 0.65; in that of RRIRWRPPRLPRPRPRPIRHPRP, -0.252; in that of RRIRYRPPRLPRPRPRPPITPRP, -0.834.
As to RRIRDRPPRLPRPRPRPTLFPRP, the “shrunken log2 fold change” value is 0.533.
With RRIRVRPPRLPRPRPRPTILPRP, the “shrunken log2 fold change” value is -0.308.
In the case of RRIRCRPPRLPRPRPRPFCGPRP it was 0.011.
With RRIRWRPPRLPRPRPRPKKLPRP the figure was -0.0343.
In the case of RRIRGRPPRLPRPRPRPTSTPRP, the “shrunken log2 fold change” value stood at 1.05.
With RRIRSRPPRLPRPRPRPNDHPRP the figure was -0.322.
RRIRDRPPRLPRPRPRPEQCPRP: the “shrunken log2 fold change” value was -0.00146.
On to RRIRIRPPRLPRPRPRPIKKPRP, for which the “shrunken log2 fold change” value was -0.0505.
With RRIRERPPRLPRPRPRPDHYPRP the figure was -0.738; with RRIRGRPPRLPRPRPRPWTDPRP, -0.211.
With RRIRWRPPRLPRPRPRPGDWPRP the figure was 0.655.
Regarding RRIRKRPPRLPRPRPRPQWYPRP, the “shrunken log2 fold change” value was -0.145.
With RRIRARPPRLPRPRPRPNEQPRP the figure was 0.234; with RRIRWRPPRLPRPRPRPMMKPRP, 0.155.
In the case of RRIRCRPPRLPRPRPRPFQYPRP it was -1.21; in that of RRIRYRPPRLPRPRPRPFNQPRP, -0.0309.
With RRIRARPPRLPRPRPRPFVTPRP the figure was -0.166; with RRIRPRPPRLPRPRPRPSNQPRP, -0.45; with RRIRTRPPRLPRPRPRPMNKPRP, -0.373.
With RRIRWRPPRLPRPRPRPDINPRP, the “shrunken log2 fold change” value came to 0.235.
In the case of RRIRVRPPRLPRPRPRPVEDPRP, the “shrunken log2 fold change” value is -0.378.
In the case of RRIRCRPPRLPRPRPRPERIPRP it was 0.164; in that of RRIRGRPPRLPRPRPRPDEDPRP, 0.168; in that of RRIRARPPRLPRPRPRPRALPRP, 0.482.
In the case of RRIRLRPPRLPRPRPRPSLHPRP it was -0.471; in that of RRIRTRPPRLPRPRPRPNVQPRP, -0.429; in that of RRIRQRPPRLPRPRPRPRKRPRP, -0.104.
In the case of RRIRRRPPRLPRPRPRPETRPRP it was 0.644; in that of RRIRNRPPRLPRPRPRPDNVPRP, -0.0161; in that of RRIRERPPRLPRPRPRPTTKPRP, 0.0648.
Turning to RRIRQRPPRLPRPRPRPPTFPRP, the “shrunken log2 fold change” value was 0.0128.
